# Reference: US20090099029
# B1: FGFR4 (protein)
# chain: RGQALHGRHPRPPATVQKLSRFPLARQFSLESGSSGKSSSSLVRGVRLSSSGPALLAGLVSLDLPLDPLWEFPRDRLVLGKPLGEGCFGQVVRAEAFGMDPARPDQASTVAVKMLKDNASDKDLADLVSEMEVMKLIGRHKNIINLLGVCTQEGPLYVIVECAAKGNLREFLRARRPPGPDLSPDGPRSSEGPLSFPVLVSCAYQVARGMQYLESRKCIHRDLAARNVLVTEDNVMKIADFGLARGVHHIDYYKKTSNGRLPVKWMAPEALFDRVYTHQSDVWSFGILLWEIFTLGGSPYPGIPVEELFSLLREGHRMDRPPHCPPELYGLMRECWHAAPSQRPTFKQLVEALDKVLLAVSEEYLDLRLTFGPYSPSGGDASSTCSSSDSVFSHDPLPLGSSSFPFGSGVQT
# B2: FGFR3 (protein)
# chain: RLRSPPKKGLGSPTVHKISRFPLKRQVSLESNASMSSNTPLVRIARLSSGEGPTLANVSELELPADPKWELSRARLTLGKPLGEGCFGQVVMAEAIGIDKDRAAKPVTVAVKMLKDDATDKDLSDLVSEMEMMKMIGKHKNIINLLGACTQGGPLYVLVEYAAKGNLREFLRARRPPGLDYSFDTCKPPEEQLTFKDLVSCAYQVARGMEYLASQKCIHRDLAARNVLVTEDNVMKIADFGLARDVHNLDYYKKTTNGRLPVKWMAPEALFDRVYTHQSDVWSFGVLLWEIFTLGGSPYPGIPVEELFKLLKEGHRMDKPANCTHDLYMIMRECWHAAPSQRPTFKQLVEDLDRVLTVTSTDEYLDLSAPFEQYSPGGQDTPSSSSSGDDSVFAHDLLPPAPPSSGGSRT
# B3: TTK (protein)
# chain: MESEDLSGRELTIDSIMNKVRDIKNKFKNEDLTDELSLNKISADTTDNSGTVNQIMMMANNPEDWLSLLLKLEKNSVPLSDALLNKLIGRYSQAIEALPPDKYGQNESFARIQVRFAELKAIQEPDDARDYFQMARANCKKFAFVHISFAQFELSQGNVKKSKQLLQKAVERGAVPLEMLEIALRNLNLQKKQLLSEEEKKNLSASTVLTAQESFSGSLGHLQNRNNSCDSRGQTTKARFLYGENMPPQDAEIGYRNSLRQTNKTKQSCPFGRVPVNLLNSPDCDVKTDDSVVPCFMKRQTSRSECRDLVVPGSKPSGNDSCELRNLKSVQNSHFKEPLVSDEKSSELIITDSITLKNKTESSLLAKLEETKEYQEPEVPESNQKQWQSKRKSECINQNPAASSNHWQIPELARKVNTEQKHTTFEQPVFSVSKQSPPISTSKWFDPKSICKTPSSNTLDDYMSCFRTPVVKNDFPPACQLSTPYGQPACFQQQQHQILATPLQNLQVLASSSANECISVKGRIYSILKQIGSGGSSKVFQVLNEKKQIYAIKYVNLEEADNQTLDSYRNEIAYLNKLQQHSDKIIRLYDYEITDQYIYMVMECGNIDLNSWLKKKKSIDPWERKSYWKNMLEAVHTIHQHGIVHSDLKPANFLIVDGMLKLIDFGIANQMQPDTTSVVKDSQVGTVNYMPPEAIKDMSSSRENGKSKSKISPKSDVWSLGCILYYMTYGKTPFQQIINQISKLHAIIDPNHEIEFPDIPEKDLQDVLKCCLKRDPKQRISIPELLAHPYVQIQTHPVNQMAKGTTEEMKYVLGQLVGLNSPNSILKAAKTLYEHYSGGESHNSSSSKTFEKKRGKK
# B4: FGFR2 (protein)
# chain: RMKNTTKKPDFSSQPAVHKLTKRIPLRRQVTVSAESSSSMNSNTPLVRITTRLSSTADTPMLAGVSEYELPEDPKWEFPRDKLTLGKPLGEGCFGQVVMAEAVGIDKDKPKEAVTVAVKMLKDDATEKDLSDLVSEMEMMKMIGKHKNIINLLGACTQDGPLYVIVEYASKGNLREYLRARRPPGMEYSYDINRVPEEQMTFKDLVSCTYQLARGMEYLASQKCIHRDLAARNVLVTENNVMKIADFGLARDINNIDYYKKTTNGRLPVKWMAPEALFDRVYTHQSDVWSFGVLMWEIFTLGGSPYPGIPVEELFKLLKEGHRMDKPANCTNELYMMMRDCWHAVPSQRPTFKQLVEDLDRILTLTTNEEYLDLSQPLEQYSPSYPDTRSSCSSGDDSVFSPDPMPYEPCLPQYPHINGSVKT
# Target: T1, Bovine, dephosphorylated, Myelin Basic Protein (MBP), P02687
# T1 chain: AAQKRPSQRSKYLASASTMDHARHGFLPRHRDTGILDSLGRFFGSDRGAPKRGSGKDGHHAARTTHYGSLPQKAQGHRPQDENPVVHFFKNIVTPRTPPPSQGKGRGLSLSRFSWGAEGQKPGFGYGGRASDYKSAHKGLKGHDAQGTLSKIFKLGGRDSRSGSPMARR
row,Protein,MBP Kinase Activity
1,B1,Strong
2,B2,Strong
3,B3,Negative
4,B4,Strong
